Laboratory results taken from the DeepSol protein solubility set.

Assay: soluble on expression in E. coli; label from the status in PepcDB or PDB records

| Sequence | soluble on expression in E. coli |
| --- | --- |
| MSLGIKMRSVVVKEPGQLNIESRPVPVPGAHEVRVKIAFAGICGSDVHIYHGHNPFAKYPRVIGHEFYGIIDAVGEQVSPARIGERVAVDPVVSCGHCYPCSVGRPNVCTQLQVIGVHRDGGFSDYACVPAKNAWRIPEAISDRQATMVEPFTIAANITAQLQPTAQDIALVYGAGPMGLTIIQALKGVYGVKQVIVVDRIAERLQMARENGADLTLDNTDQPLAEQLAQRQLAPTLVIDAACHPAILQEAILLASPAARIGILGFSGEASTLTQQSITSKEISIFSSRLNSGRFPLVIDWMEKGLIRPEALITHCMPLEQVKEAMEIFANDRKTCCKVLLQLGEGHHHHHH | soluble |
| MSLGKDIKVGYNWELSGNVSSYGNSMKNGADLAVKEINAAGGVGGKKLKVLSQDNKSENAEAATVATNLVTKGANVIIGPATSGAAASSTPKVNAAAVPMIAPAATQDNLVYGSDGKTLNQYFFRATFVDNYQGKLLSQYATDNLKAKKVVLFYDNSSDYSKGVAKSFKESYSGKIVDSMTFSAGDTDFQASLTKLKGKEYDAIVMPGYYTETGLIVKQARDLGISKPVLGPDGFDSPKFVQSATPVGASNVYYLTGFTTQGSTKAKAFHDHYVKAYGEEPSMFSALSYDAVYMAAKSAKGAKTSIDIKKALAKLKDFKGVTGKMSIDKNHNVVKSAYVVKLEDGKTSSVNIISAKEGHHHHHH | soluble |
| MSLGKKDKRWVLQRKNDHYYNLAKKRNYRSRATYKLFQLNEKFNLIKERNVVVDLGCAPGGWLQAARDIVGDKGFIVGIDLQTVKPLPYENVIAIKGDMTKEEILKQARDLLPEKPDVIICDASPNISGVWDVDHARSLELTTMALMTATKMLKKGGNFVVKVFQGDLFEKYVQLVSEYFDKAFTTKPRASRDESAEVYVIGKRFNGRKFDMNSKSPIVKLLDTNPKENEITSPSLRKDISKEDSGLMIKRIKEMRSKKEGHHHHHH | soluble |
| MSLGNFHTMLDALLEDQEEAVLATIVQVEGSAYRKAGASMLFKKKGRRIGLLSGGCVEEDVFQRISALGDQLTSTLIPYDMRSEDDLSWGMGAGCNGIIHVHAERITQEKRRHYEKVRDCLHSGKAVTSVIKIESSHYLFLTENGHFGNWPDAPLQDIQRTVSTLHLPHFDQTTNMFIQRIEPKPRLILFGAGPDNVPLANLAADTGFSVIVTDWRPAYCTSSLFPKADQLITAFPEQMLSEFQFFPHDAAVVATHHYQHDQTIINFLFSQNLHYIGLLGSANRTKRLLSGKHPPSHFYSPVGLKIGAEGPEEIAVSVVAEIIQTRKRVAVVEGGSHHHHHH | soluble |
| MSLGQKGHKDSLYPCGGTPESSLHEALDQCMTALDLFLTNQFSEALSYLKPRTKESMYHSLTYATILEMQAMMTFDPQDILLAGNMMKEAQMLCQRHRRKSSVTDSFSSLVNRPTLGQFTEEEIHAEVCYAECLLQRAALTFLQDENMVSFIKGGIKVRNSYQTYKELDSLVQSEGHHHHHH | not soluble |
| MSLGRHSDNSLQESANHTVLLTSPTNTIPKDSRQRSQQFMQNLQDEICTALEQLDGKASFHQDHWERAEGGEGRTRVIREGRVFEQGGVNFSAVWGNSLPASILAQRPEAAGHEFFATGTSMVLHPRNPYVPTVHLNYRYFEAGPIWWFGGGADLTPYYAFKEDAVHFHQTLKNACDVHNPEYYPTFKRWCDEYFYLRHREEQRGIGGIFFDYQDASGKLYVESQTDSSVAIYSQKVGNVARNWEDIFAFVQSCGQAFLPAYLPIVERRQGIEYGDRQRNFQLYRRGRYVEFNLVYDRGTVFGLQTKGRTESILMSLPPLARWEYCYEPEAGSPEAELTEVFLQPRDWVEGHHHHHH | not soluble |
| MSLGSMSATPLQAGLKTLQLTEPFRIAHGTSTERQVLRLRWNGAVGEAPVVPYYKESAAVTLEWLQALDWNGSPAPKDGPRLGRLALDLLWHDAVGRDKRQTLGQMLHLNPAQTPPGCRSFSIPTDLDKFAEKVAQVSRQFQVLKLKTGSGNVEFDEAIVATARKAAPDAKLLVDANGGWTVEETAAILPKLVKYDLTLVEQPFHHDGGSESWRELKYLLPSHSIPLYADESAQGPDDVLTLAGLVDGVNVKLLKCGSIAEAQTMIRFARASGMGVLLGCMIESSVGVTAAAHLAPLADWIDLDGHLYVADDDYEGVSYDEQGRLHLRDLPGLGVTPREGHHHHHH | soluble |
| MSLGSNKTIIINLNNLEHNLNLIKNKIGEKEIVATLKGDAYGHGLINIFKFLKSKNINYFGLSNIEDAKTLKKIDKNIKILMYIKVDKKEIKNLIKFELVPFVSDFEYLFLIEKECALQKNKIKVHLKIDIGMNRYGIKIDDALEIATYIQNSKFLELEGICSHLPSIENFKTTQKQIEQFLFFLETLKQKNIHPKFVHISNSGHIINYKLNPQFNMVRPGLILYGYCQSLKNKKPALNFKPVLSLFSKVIFIKNVKKGEKISYSGIFQAKEDMKIGIIPIGYFDGIPQNISNDFYFLINNKKCKIRGKVCMNLTIVEIPKDLKVKTGSKVEIVSEKLSIDEMSKFSKRSHYELLCNIGKYEKRKYLDEGHHHITTDPNSSSVDKLAAALEHHHHHH | soluble |
| MSLGSNPPTKILDFLFLGGVSDATNPEFLRRENIVTILNVSREEYWSVDKGITIHPFPLEDNAEENIRKFFSHTYRLLEAARSSASPARPPCVLVHSRYGISRSVTIVLAYLMRRNGWSLNDALQYVMCRRPHVEPNVGFMNVLLSFQRDMDPQKRDIQRNEGHHHHHH | not soluble |
| MSLGTRAPSFTPERSVEISGGEDGYFQARGTISGPLGETLAGRLSAYRTRDDGYVKNLHDGNTLNGGARQGFRGQLLFKPNDDFSLRWIGDYNEEDSDNGVLTLFSSGPTVNGVNRYEQRAAAAGATLVDGHRRKVNFDSDQQVTVFQGGTSVEANWKLANDFTLTSISAYRWWDFTPRNDDGLDVPAAYNAGVSVRDKQWSQEIRLASPSGGFFDYVLGAYYFGQDLDNKSFTDYGPRADIWNGTPAGALSDVSTRGRGHIDTDSYALFAQGTWHLTERLDLTAGVRGTYEEKSAWVEREGHHHHHH | soluble |
| MSLHEKKKENVPEWQHFDAAIFNKAKKEHKLVLLHLGANWCHWCHVMEEQTYTDPFVLELLNKSYIACKEDHDERQDLTSLYAAYGWPATIVFDADGNELLKEAGFISSDRFIALLKKLVKNPTPMPTDSVQIEPAVASDSSTQQALNTLKKKFYSSLDIEGGGFNYAQKYIDFETFEYAFNHSENDSILTKWLYNSVVNSAGLNDNVWGGVFQYSTHSDWNHLHYEKLLSIQARYIKMYCWYYKRFNDADALSHAESAAKYVQRFLDDPKGGFYNSQDADVTPGEKATEYFKLNNADRIKKGIPAIDKNSYTSDNAEMIEACIILSAATGNNTYLEKAVRCFDFIKKNNKTNNAYAHGSNYTNSISLKDNIAIVKSALLLYRATQDAAYKSEALRIIQEVAGTFYSKKGYMISFIGNSPIKGSYNITENIEACRLLNYCSHVFNEPKYKILAQTIFGFLTNENLVKTMSTEPGILSAYEELNTEPLKAVLMIKNGTELKTDFLNSSLSFPAFYFDNTIYTSTTIPSDKYELFDSFDKNFIVACTASYCSSPMFSKDGFEKFIYRRAFSTEGHHHHHH | soluble |
| MSLHNRFSLAQTLVTTVEAESGTRAGGLTIATANAGYSGTGYITNMTSAADKLTIPVTVPSAGNYQLVIRYNGPYGPKDQDIYVNGVFVSSLHFPETTGYTDLTAGSLTLNAGANTIGIYKNWGYTDFDKISLFTVPLHDYSTVAPNLIDANATPEAKALYNYIKAGYGTRIISGQTSDYYNTVSPNAAKKPVIRAYDFQHYTVGYSYLWNNATASHTFGWEDDGTTQAAIDWYNSTCQKGMVAFHWHWHSPSGGQAGTNTFYTNSTAFDVTKAVTQGTPEYTAVIRDIDSIATQLKRLQAAGVPVLWRPLHEAGGAWFWWGAKGPAAALALYDMVYNRIVNYHNIHNLIWQWSTPEANWYPGNSKVDMLGYDSYPGAYNYGTQKLIFDQLYTIVNGQKILAMTENGPIPDPDLCFSSDAKWAYVMSWSDLVTQQNSSAQLNLVYNHAKVLTLDEVTTATNTAQLTAEGHHHHHH | soluble |
| MSLIARRNPIEQLPAIAQDPDKFGVLLSAAEFRTHLVESIRQARKRIYLVALYLENDDAGREILTELYAAKQRNPGLEIHICVDWHRAQRGLIGAAESEGNAAMYRDFAQQHEHCIPVYGIPVRGREVFGVLHLKGFIIDDQVIYSGASLNNVYLQFHGRYRFDRYHTLENAELADSMVHFIQQEMLAHPAVNNLACGSKPTTKEIKSDIRQFRASLAQANYQFAKQKVNEGQVAVTPLVGLGRRRNRLNQSIIQLLASAKDEVFICTPYFNFPPSIAKEVKKALRRGVKVHIVIGDKTANDFYIAPEEPFKTIGGLPYLYELNLRRFAKANEAHIASRKLSIHLWKHENHSFHLKGIWVDKRYMLITGNNLNPRAWKLDLENAILIRDDYHHLTTKFEAEIDNILQHTQLICTYKQIEKPEHYPEKVQRLVRRIMRLKADRVLKQILEGHHHHHH | not soluble |
| MSLICSISNEVPEHPCVSPVSNHVYERRLIEKYIAENGTDPINNQPLSEEQLIDIKVAHPIRPKPPSATSIPAILKALQDEWDAVMLHSFTLRQQLQTTRQELSHALYQHDAACRVIARLTKEVTAAREALATLKPQAGLIVPQAVPSSQPSVVGAGEPMDLGELVGMTPEIIQKLQDKATVLTTERKKRGKTVPEELVKPEELSKYRQVASHVGLHSASIPGILALDLCPSDTNKILTGGADKNVVVFDKSSEQILATLKGHTKKVTSVVFHPSQDLVFSASPDATIRIWSVPNASCVQVVRAHESAVTGLSLHATGDYLLSSSDDQYWAFSDIQTGRVLTKVTDETSGCSLTCAQFHPDGLIFGTGTMDSQIKIWDLKERTNVANFPGHSGPITSIAFSENGYYLATAADDSSVKLWDLRKLKNFKTLQLDNNFEVKSLIFDQSGTYLALGGTDVQIYICKQWTEILHFTEHSGLTTGVAFGHHAKFIASTGMDRSLKFYSL | soluble |
| MSLIEQLIQQAQPYWQQYIEHEFVQQLAKGTLPKACFQHYLKQDYLYLFHYSRAFALGVFKAKNFAEMETPRKTLEILCQEIQLHLNYCREWGISEQEIFTTQESAACIAYTRYLLDCGMTGSLAELYAAVTPCALGYAQVARYITQHYPRLPNNPYQTWIDTYASEEFQQAAQETVDFLTALCKPLNPSQLAEIQQIFTTATRMEIAFWQMGLDLAEGGSHHHHHH | soluble |
| MSLIKKVLPLAEQLRPKNLNDIVGQDHILGENGLITKTIESQIPLSVILWGPPGCGKTSIARLYAQAFNMQFISMSAIFSGVADLKKTIKEAQNQPLFHKGTLLFVDEIHRFNKSQQDAFLPFVENGTIILIGATTENPSFYLNGALLSRLRVLPIYPLDGFSLEQLLERYEKQFAPLPLTAEARHWLITCAQGDGRYLYNLIENLRYASKQILDIPLLEKIFQKRSPLFDKRGDQHYNLISALHKSVRGSDPNAAIYWFTRMLEGGEEPLFLARRLIRMAVEDIGLSDPQALPLAIAAKDAYEMLGSPEGELALAEVVIYLALAPKSNAVYRAFGMAKESASKTSYLNPPLTILNAPTKMMKNLGYGKDYQYDPDLPEAFSGQNYFPDSLEKQHFYEPVERGFERELKKRLEYFEQLRLKKKEGHHHHHH | soluble |
| MSLILKRVYIDFEMNMPNSKSKRAVFNSDIIAIGAVMYDEKTKNIDKFKSLIRPVSNEELYPHIQELTHISSEELKSAPSYEEVMRKFKKWLGIFSDIKGIYTFGNLDLTCFNNTDMRSAKKNNHPRFVNNIRDLFVDIKEKYINCGMRCMNYISLKNLLEFVNLEFSGDAHDPLNDAYNLFILDEAITNNVDIQNLLIIRDIIRPPFNDINSNLDNCFNKFKESLYKKEGNYNIVDFSVEIIKTVRMYLLTIIDVNIQNLEIMKDISKKMDTIDKLKDIEEGYFYLLEDVYFDMKDVLEDLMLYRMNEDEYKYEIKNIIKMFDEDLDNEKIYINKCNNLNVVNKEGHHHHHH | not soluble |
